Numbering of substitutions follows the chain as printed.
T1: Soluble CDCP1 extracellular domain (CDCP1-ECD) (SEQ ID NO:30) fused to Streptavidin Binding Protein (SBP) (human, UniProt Q9H5V8 30-663)
T1 construct: also called SBP-CDCP1-ECD
T1 sequence: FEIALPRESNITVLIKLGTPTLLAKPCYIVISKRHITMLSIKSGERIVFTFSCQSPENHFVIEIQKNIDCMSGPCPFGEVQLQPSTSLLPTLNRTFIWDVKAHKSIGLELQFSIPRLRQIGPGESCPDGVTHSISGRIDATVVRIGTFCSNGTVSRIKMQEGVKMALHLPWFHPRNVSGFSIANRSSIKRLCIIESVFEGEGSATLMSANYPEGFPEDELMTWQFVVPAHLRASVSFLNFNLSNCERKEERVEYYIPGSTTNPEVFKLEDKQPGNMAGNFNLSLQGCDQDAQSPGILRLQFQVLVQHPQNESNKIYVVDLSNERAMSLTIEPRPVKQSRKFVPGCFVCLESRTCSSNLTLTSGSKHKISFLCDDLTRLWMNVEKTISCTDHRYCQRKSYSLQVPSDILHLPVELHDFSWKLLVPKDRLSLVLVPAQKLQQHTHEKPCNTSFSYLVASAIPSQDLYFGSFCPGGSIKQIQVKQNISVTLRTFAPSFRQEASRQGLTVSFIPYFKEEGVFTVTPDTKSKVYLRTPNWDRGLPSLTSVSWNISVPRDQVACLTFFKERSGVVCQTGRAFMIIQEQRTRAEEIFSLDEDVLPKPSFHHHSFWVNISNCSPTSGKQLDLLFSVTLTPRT

B1: hHC4-a / hLC4-e (antibody, V domains shown)
VH: EVQLVESGGGLVKPGGSLRLSCAASGFTFNSYGMSWVRQAPGKGLEWVSTISSGGSYTYYPDSVKGRFTISRDNAKNSLYLQMNSLRAEDTAVYYCARHPDYDGVWFAYWGQGTLVTVSS
VL: DIQMTQSPSSLSASVGDRVTITCSVSSSVFYVHWYQQKPGKAPKLLIYDTSKLASGVPSRFSGSGSGTDFTFTISSLQPEDIATYYCQQWNSNPPTFGGGTKVEIK
B2: hHC4-c / chLC4 (antibody, V domains shown)
VH: B1 VH with K13Q, S49A
VL: QIVLTQSPAIMSASPGEKVTMTCSVSSSVFYVHWYQQKSGTSPKRWIYDTSKLASGVPARFSGSGSGTSYSLTISSMEAEDAATYYCQQWNSNPPTFGGGTKLEIK
B3: hHC4-a / hLC4-K (antibody, V domains shown)
VH: B1 VH
VL: EIVLTQSPATLSLSPGERATLSCRASSSVFYLHWYQQKPGQAPRLWIYDTSKLASGIPARFSGSGSGTDFTLTISSLEPEDFAVYYCQQWNSNPPTFGGGTKVEIK
B4: hHC4-04 / hLC4-L (antibody, V domains shown)
VH: B1 VH with V5L, K13Q, A75S, S78T
VL: B3 VL with L21M
B5: hHC4-04 / hLC4-I (antibody, V domains shown)
VH: B1 VH with V5L, K13Q, A75S, S78T
VL: B3 VL with L4M, H33S, E78Q
B6: hHC4-b / chLC4 (antibody, V domains shown)
VH: B1 VH with G33S, S35N, T50S, T58I, P61A
VL: B2 VL
B7: hHC4-c / hLC4-e (antibody, V domains shown)
VH: B1 VH with K13Q, S49A
VL: B1 VL
B8: hHC4-H / hLC4-f (antibody, V domains shown)
VH: B1 VH with K13Q, S49A, T58K, P61V
VL: B1 VL with F70Y
notes: also called Humanized CUB4 Antibody No. 146
B9: hHC4-04 / hLC4-f (antibody, V domains shown)
VH: B1 VH with V5L, K13Q, A75S, S78T
VL: B1 VL with F70Y
B10: hHC4-b / hLC4-f (antibody, V domains shown)
VH: B1 VH with G33S, S35N, T50S, T58I, P61A
VL: B1 VL with F70Y
B11: hHC4-04 / hLC4-a (antibody, V domains shown)
VH: B1 VH with V5L, K13Q, A75S, S78T
VL: B3 VL with R24S, A25V, L32V, W46L
B12: hHC4-03 / hLC4-I (antibody, V domains shown)
VH: B1 VH with V5L, K13Q, T50A, A75S, S78T, R98K
VL: B3 VL with L4M, H33S, E78Q
B13: hHC4-04 / hLC4-M (antibody, V domains shown)
VH: B1 VH with V5L, K13Q, A75S, S78T
VL: B3 VL with L21M, R24G, Q41L, A59D, S76R
B14: hHC4-K2 / hLC4-e (antibody, V domains shown)
VH: B1 VH with T50S, P61A
VL: B1 VL
B15: hHC4-03 / hLC4-b (antibody, V domains shown)
VH: B1 VH with V5L, K13Q, T50A, A75S, S78T, R98K
VL: B3 VL with R24S, A25V, L32V, W46L, F70Y
B16: hHC4-04 / hLC4-J (antibody, V domains shown)
VH: B1 VH with V5L, K13Q, A75S, S78T
VL: B3 VL with L4M, L21M, E78Q
B17: hHC4-07 / hLC4-e (antibody, V domains shown)
VH: B1 VH with V5L, K13Q, G33A, A75S, S78T, R98K
VL: B1 VL
B18: hHC4-c / hLC4-f (antibody, V domains shown)
VH: B1 VH with K13Q, S49A
VL: B1 VL with F70Y
B19: hHC4-03 / hLC4-M (antibody, V domains shown)
VH: B1 VH with V5L, K13Q, T50A, A75S, S78T, R98K
VL: B3 VL with L21M, R24G, Q41L, A59D, S76R
B20: hHC4-I / hLC4-e (antibody, V domains shown)
VH: B1 VH with V5L, K13Q, G33A, T50A, P61A, A75S, S78T, R98K
VL: B1 VL
B21: hHC4-03 / hLC4-a (antibody, V domains shown)
VH: B1 VH with V5L, K13Q, T50A, A75S, S78T, R98K
VL: B3 VL with R24S, A25V, L32V, W46L
B22: hHC4-d / hLC4-e (antibody, V domains shown)
VH: B1 VH with V5L, K13Q, A75S, S78T, R98K
VL: B1 VL
B23: hHC4-a / hLC4-f (antibody, V domains shown)
VH: B1 VH
VL: B1 VL with F70Y
B24: hHC4-d / hLC4-f (antibody, V domains shown)
VH: B1 VH with V5L, K13Q, A75S, S78T, R98K
VL: B1 VL with F70Y
B25: hHC4-04 / hLC4-e (antibody, V domains shown)
VH: B1 VH with V5L, K13Q, A75S, S78T
VL: B1 VL
B26: hHC4-04 / chLC4 (antibody, V domains shown)
VH: B1 VH with V5L, K13Q, A75S, S78T
VL: B2 VL
B27: hHC4-K / hLC4-e (antibody, V domains shown)
VH: B1 VH with T50S, T58I, P61A
VL: B1 VL
B28: hHC4-b / hLC4-e (antibody, V domains shown)
VH: B1 VH with G33S, S35N, T50S, T58I, P61A
VL: B1 VL
B29: hHC4-07 / hLC4-f (antibody, V domains shown)
VH: B1 VH with V5L, K13Q, G33A, A75S, S78T, R98K
VL: B1 VL with F70Y
B30: hHC4-03 / hLC4-f (antibody, V domains shown)
VH: B1 VH with V5L, K13Q, T50A, A75S, S78T, R98K
VL: B1 VL with F70Y
B31: hHC4-K / hLC4-f (antibody, V domains shown)
VH: B1 VH with T50S, T58I, P61A
VL: B1 VL with F70Y
B32: hHC4-03 / hLC4-L (antibody, V domains shown)
VH: B1 VH with V5L, K13Q, T50A, A75S, S78T, R98K
VL: B3 VL with L21M
B33: hHC4-04 / hLC4-K (antibody, V domains shown)
VH: B1 VH with V5L, K13Q, A75S, S78T
VL: B3 VL
B34: hHC4-04 / hLC4-L2 (antibody, V domains shown)
VH: B1 VH with V5L, K13Q, A75S, S78T
VL: B3 VL with L21M, R24S, A25V
B35: hHC4-H / chLC4 (antibody, V domains shown)
VH: B1 VH with K13Q, S49A, T58K, P61V
VL: B2 VL

Target: T1, Soluble CDCP1 extracellular domain …
Assay: ELISA on captured SBP-CDCP1-ECD, ratio relative to chimeric CUB4 (chHC4)
Method: Soluble CDCP1 extracellular domain (CDCP1-ECD) (SEQ ID NO:30) fused to Streptavidin Binding Protein (SBP) was captured on a sreptavidine plate. To define optimal binding of the antibody to SBP-CDCP1-ECD, 384-well polystyrene plates (NUNC, streptavidin-coated) delivered by MicroCoat, Bernried, Germany (ID-No. 1734776-001) have been coated with pure and stepwise diluted HEK293 supernatant (in BSA/IMDM buffer: 100 mg/ml BSA Fraction V, Roche 10735078001, dissolved in Iscove's Modified Dulbeccos Medium). Using a calibration curve of mouse CUB4 antibodies the optimal dilution factor of the HEK293 supernatant in relation to the streptavidin binding capacity of the microtiter plate was identified. For the standard coating, SBP-CDCP1-ECD containing HEK293 supernatant was diluted (between 1:15 and 1:40) and incubated overnight at 2-8° C. (25 μl per well). Intensive washing of the microtiter plate is necessary to remove remaining unbound SBP-CDCP1-ECD.
Humanized CUB4 antibodies and/or reference antibody (chimeric (chHC4) CUB4 antibody comprising human constant region and mouse VH and VL of SEQ ID NO:1 and 2) were tested either undiluted or using a 12-step-dilution. 12.5 μl per well of each sample was incubated for 90 min at room temperature. After intensive washing using PBS-T (0.1% Tween 20 in PBS) 25 μl of either goat anti-human IgG antibodies coupled with HRP (Jackson ImmunoResearch, Code No: 109-036-098, dilution 1:10000) for human antibodies were added and incubated for 1 hour. After intensive washing the binding of the antibodies was detected with ABTS tablets (Roche Diagnostics GmbH, Cat. No.: 1112422). Absorbance at 405 nm/492 nm was measured using a standard photometer.

| relative binding ratio | binding result | Binder |
| --- | --- | --- |
| 0.46 | – | B1 |
| 1 | – | B2 |
| 0.51 | – | B3 |
| 0.68 | – | B4 |
| – | no binding | B5 |
| – | no binding | B6 |
| 0.25 | – | B7 |
| 0.42 | – | B8 |
| 0.37 | – | B9 |
| – | no binding | B10 |
| 0.39 | – | B11 |
| – | no binding | B12 |
| 0.82 | – | B13 |
| 0.07 | – | B14 |
| 0.07 | – | B15 |
| 0.4 | – | B16 |
| 0.07 | – | B17 |
| 0.34 | – | B18 |

| relative binding ratio | binding result | Binder |
| --- | --- | --- |
| 0.14 | – | B19 |
| 0.07 | – | B20 |
| 0.07 | – | B21 |
| 0.27 | – | B22 |
| 0.5 | – | B23 |
| 0.4 | – | B24 |
| 0.2 | – | B25 |
| 0.71 | – | B26 |
| – | no binding | B27 |
| – | no binding | B28 |
| 0.07 | – | B29 |
| 0.07 | – | B30 |
| – | no binding | B31 |
| 0.17 | – | B32 |
| 0.57 | – | B33 |
| 0.67 | – | B34 |
| 1.12 | – | B35 |
